Experimental findings from patent US20140170137A1 (NVIP, published 2014) are described below.

Positions count from the first letter of the chain named.

The target in test [1] is T1, mouse NGF (mouse, UniProt P01139 122-241).
T1 construct: also called murine NGF
Nature of the test: ELISA, CHO supernatant on murine NGF.

The target of test [2] is NGF (TF-1 cell proliferation assay). Nature of the test: cell-based or functional assay.
The target of test [3] is T2, complement C1q (human, UniProt P02745 23-245; P02746 28-253; P02747 29-245).
T2 construct: Supplied as human serum diluted 1/100; detected with sheep anti-C1q-HRP
T2 sequence (P02745 23-245 limits assumed, chain 1 of 3): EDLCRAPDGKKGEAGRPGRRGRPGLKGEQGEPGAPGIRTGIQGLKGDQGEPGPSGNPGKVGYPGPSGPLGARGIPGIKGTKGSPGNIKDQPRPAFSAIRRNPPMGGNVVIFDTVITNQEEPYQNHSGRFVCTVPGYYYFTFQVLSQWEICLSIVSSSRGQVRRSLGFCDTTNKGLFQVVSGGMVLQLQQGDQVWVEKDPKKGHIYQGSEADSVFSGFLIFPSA
T2 sequence (P02746 28-253 limits assumed, chain 2 of 3): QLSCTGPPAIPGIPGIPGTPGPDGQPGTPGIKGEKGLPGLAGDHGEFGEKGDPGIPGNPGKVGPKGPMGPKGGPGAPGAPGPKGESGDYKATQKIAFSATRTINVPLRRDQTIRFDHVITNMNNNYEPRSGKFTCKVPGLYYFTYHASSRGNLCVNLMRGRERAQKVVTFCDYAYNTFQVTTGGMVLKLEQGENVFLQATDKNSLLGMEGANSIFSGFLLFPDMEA
T2 sequence (P02747 29-245 limits assumed, chain 3 of 3): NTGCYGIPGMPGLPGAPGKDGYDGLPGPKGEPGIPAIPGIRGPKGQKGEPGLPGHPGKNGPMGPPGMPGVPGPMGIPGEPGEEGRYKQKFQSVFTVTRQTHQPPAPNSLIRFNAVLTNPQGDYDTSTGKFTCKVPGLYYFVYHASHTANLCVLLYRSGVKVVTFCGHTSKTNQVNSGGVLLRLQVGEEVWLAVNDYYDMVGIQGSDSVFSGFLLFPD
Description: C1q ELISA, antibody captured on mouse NGF coated plates.

Test [4] concerns the target T2, complement C1q. Nature of the test: C1q ELISA, antibody captured on mouse NGF, human serum 1/100. (In general: An ELISA detects its analyte on a solid surface through an enzyme-linked reagent.)
The target in test [5] is T1, mouse NGF. Nature of the test: binding ELISA to mouse NGF, CHO supernatants.
The target of test [6] is T2, complement C1q. Description: C1q ELISA, antibody captured on NGF.
In test [7] the target is T2, complement C1q. Nature of the test: C1q ELISA, antibody captured on NGF coated plates.

T1 sequence (P01139 122-241 limits assumed): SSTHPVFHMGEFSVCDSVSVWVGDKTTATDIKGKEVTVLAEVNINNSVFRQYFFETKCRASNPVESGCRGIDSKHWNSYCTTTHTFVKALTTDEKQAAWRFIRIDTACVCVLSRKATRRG
NGF (TF-1 cell proliferation assay), sequence (P01138 122-241): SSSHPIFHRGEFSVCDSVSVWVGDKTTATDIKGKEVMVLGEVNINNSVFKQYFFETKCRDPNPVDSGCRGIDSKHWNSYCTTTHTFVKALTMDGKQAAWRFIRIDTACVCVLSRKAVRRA

B1: caN-HCA-kLC (antibody)
heavy: EVQLVESGGDLVNPGGTLTLSCVVSGFSLTNNNVNWVRQALGRGLEWVGGVWAGGATDYNSALKSRLTITRDTSKSTVFLKMHSLQSEDTATYYCARDGGYSSSTLYAMDAWGQGTLVTVSSASTTAPSVFPLAPSCGSTSGSTVALACLVSGYFPEPVTVSWNSGSLTSGVHTFPSVLQSSGLHSLSSMVTVPSSRWPSETFTCNVVHPASNTKVDKPVFNECRCTDTPPCPVPEPLGGPSVLIFPPKPKDILRITRTPEVTCVVLDLGREDPEVQISWFVDGKEVHTAKTQSREQQFNGTYRVVSVLPIEHQDWLTGKEFKCRVNHIDLPSPIERTISKARGRAHKPSVYVLPPSPKELSSSDTVSITCLIKDFYPPDIDVEWQSNGQQEPERKHRMTPPQLDEDGSYFLYSKLSVDKSRWQQGDPFTCAVMHETLQNHYTDLSLSHSPGK
light: DIQMTQSPASLSLSQEEKVTITCRASEDIYNALAWYQQKPGQAPKLLIYNTDTLHTGVPSRFSGSGSGTEYSLTINSLESEDVAVYFCQHYFHYPRTFGAGTKVELKRNDAQPAVYLFQPSPDQLHTGSASVVCLLNSFYPKDINVKWKVDGVIQDTGIQESVTEQDKDSTYSLSSTLTMSSTEYLSHELYSCEITHKSLPSTLIKSFQRSECQRVD
notes: Caninised aD11 VH joined to canine HCA (caIgG-A) constant domain; caninised aD11 VL joined to canine kappa constant domain; also called caninised anti-NGF antibody, HCA isotype; anti-canine NGF antibody (HCA isotype)
Consider B1, for which the results for the binding result with mouse NGF [1] and with complement C1q [3] were “binds” and “no binding (tested: human serum diluted 1/100)”, respectively. In addition, the “IC50, TF-1 NGF neutralisation assay” value in test [2] came to 0.013 nM.

B2: caN-HCC-kLC (antibody)
heavy: EVQLVESGGDLVNPGGTLTLSCVVSGFSLTNNNVNWVRQALGRGLEWVGGVWAGGATDYNSALKSRLTITRDTSKSTVFLKMHSLQSEDTATYYCARDGGYSSSTLYAMDAWGQGTLVTVSSASTTAPSVFPLAPSCGSQSGSTVALACLVSGYIPEPVTVSWNSVSLTSGVHTFPSVLQSSGLYSLSSMVTVPSSRWPSETFTCNVAHPATNTKVDKPVAKECECKCNCNNCPCPGCGLLGGPSVFIFPPKPKDILVTARTPTVTCVVVDLDPENPEVQISWFVDSKQVQTANTQPREEQSNGTYRVVSVLPIGHQDWLSGKQFKCKVNNKALPSPIEEIISKTPGQAHQPNVYVLPPSRDEMSKNTVTLTCLVKDFFPPEIDVEWQSNGQQEPESKYRMTPPQLDEDGSYFLYSKLSVDKSRWQRGDTFICAVMHEALHNHYTQISLSHSPGK
light: B1 light
notes: Caninised aD11 VH joined to canine HCC (caIgG-C) constant domain; canine kappa light chain; CHO supernatant; also called caninised anti-NGF antibody, HCC isotype
Turning to B2, the binding result with complement C1q [4] and in the test with mouse NGF [5] was “binds” each time.

B3: caN-HCD-kLC (antibody)
heavy: EVQLVESGGDLVNPGGTLTLSCVVSGFSLTNNNVNWVRQALGRGLEWVGGVWAGGATDYNSALKSRLTITRDTSKSTVFLKMHSLQSEDTATYYCARDGGYSSSTLYAMDAWGQGTLVTVSSASTTAPSVFPLAPSCGSTSGSTVALACLVSGYFPEPVTVSWNSGSLTSGVHTFPSVLQSSGLYSLSSTVTVPSSRWPSETFTCNVVHPASNTKVDKPVPKESTCKCISPCPVPESLGGPSVFIFPPKPKDILRITRTPEITCVVLDLGREDPEVQISWFVDGKEVHTAKTQPREQQFNSTYRVVSVLPIEHQDWLTGKEFKCRVNHIGLPSPIERTISKARGQAHQPSVYVLPPSPKELSSSDTVTLTCLIKDFYPPEIDVEWQSNGQPEPESKYHTTAPQLDEDGSYFLYSKLSVDKSRWQQGDTFTCAVMHEALQNHYTDLSLSHSPGK
light: B1 light
notes: Caninised aD11 VH joined to canine HCD (caIgG-D) constant domain; canine kappa light chain; CHO supernatant; also called caninised anti-NGF antibody, HCD isotype
B3: the binding result is given as “binds” with mouse NGF [1] and “no binding (tested: human serum diluted 1/100)” with complement C1q [3].

B4: caN-HCB-kLC (antibody)
heavy: EVQLVESGGDLVNPGGTLTLSCVVSGFSLTNNNVNWVRQALGRGLEWVGGVWAGGATDYNSALKSRLTITRDTSKSTVFLKMHSLQSEDTATYYCARDGGYSSSTLYAMDAWGQGTLVTVSSASTTAPSVFPLAPSCGSTSGSTVALACLVSGYFPEPVTVSWNSGSLTSGVHTFPSVLQSSGLYSLSSMVTVPSSRWPSETFTCNVAHPASKTKVDKPVPKRENGRVPRPPDCPKCPAPEMLGGPSVFIFPPKPKDTLLIARTPEVTCVVVDLDPEDPEVQISWFVDGKQMQTAKTQPREEQFNGTYRVVSVLPIGHQDWLKGKQFTCKVNNKALPSPIERTISKARGQAHQPSVYVLPPSREELSKNTVSLTCLIKDFYPPDIDVEWQSNGQQEPESKYRTTPPQLDEDGSYFLYSKLSVDKSRWQRGDTFICAVMHEALHNHYTQESLSHSPGK
light: B1 light
notes: Caninised aD11 VH joined to canine HCB (caIgG-B) constant domain; canine kappa light chain; CHO supernatant; also called caninised anti-NGF antibody, HCB isotype
For B4, the binding result with complement C1q [4] and with mouse NGF [5] was “binds” each time.

B5: anti-NGF MAb with aglycosyl HCC heavy chain (HCC*) (antibody)
heavy: B2 heavy with N303A
light: B1 light
For the molecule B5, the binding result in the test with complement C1q [6] and with mouse NGF [5] was “binds” in each case.

B6: anti-NGF MAb with aglycosyl HCB heavy chain (HCB*) (antibody)
heavy: B4 heavy with N305A
light: B1 light
notes: also called aglycosylated HCB*; aglycosyl HCB* isotype anti-NGF antibody
Turning to B6, the values for the binding result with complement C1q [7] and with mouse NGF [5] were “no binding (tested: human serum diluted 1/100)” and “binds”, respectively.
